Laboratory results: paper PMC9728973
pIC50, pKd: −log10 of the molar value.

Assays:
[1] = biological target: prefusion stabilized SARS-CoV-2 S-protein trimer (SARS-CoV-2) (UniProt P0DTC2); test: ELISA
[2] = biological target: wild-type (WT) SARS-CoV-2 S-protein trimer (SARS-CoV-2) (UniProt P0DTC2); test: ELISA
[3] = biological target: wild-type (WT) SARS-CoV-2 S-protein trimer (SARS-CoV-2) (UniProt P0DTC2)
Fc-Li-PD (human) = Fc-Li-PD (human) (UniProt Q9BYF1); test: BLI
PD-CLD-Fc (human) = PD-CLD-Fc (human) (UniProt Q9BYF1); test: BLI
PD-Fc (human) = PD-Fc (human) (UniProt Q9BYF1); test: BLI
PD-Li-Fc (human) = PD-Li-Fc (human) (UniProt Q9BYF1); test: BLI

## PD-CLD-Fc (from UniProt Q9BYF1 18-740) (Fc fusion)
[1]
  pIC50: 8.00
[2]
  pIC50: 10.00

## PD-Fc (from UniProt Q9BYF1 18-615) (Fc fusion)
[3]
  IC50 of neutralisation: infection of ACE2-transduced HEK293T cells by SARS-CoV-2 pseudotyped VSV particles (luciferase); S protein on the pseudovirus with cell-surface ACE2: 12 nM

## PD-Li-Fc (from UniProt Q9BYF1 18-615) (Fc fusion)
[3]
  IC50 of neutralisation: infection of ACE2-transduced HEK293T cells by SARS-CoV-2 pseudotyped VSV particles (luciferase); S protein on the pseudovirus with cell-surface ACE2: 12 nM

## S1 monomer (BLI of Fig. 3B) (domain or fragment)
Fc-Li-PD (human)
  pKd: 7.35
PD-CLD-Fc (human)
  pKd: 7.96
PD-Fc (human)
  ratio of the KD for S1 monomer to the KD for S-protein trimer: 3 fold
PD-Li-Fc (human)
  ratio of the KD for S1 monomer to the KD for S-protein trimer: 3 fold
